Measured values published in publication PMC8523820.

Legend:
[1] = biological target: mouse ASIC1a channel (mouse (endogenous in C57BL/6 striatal neurons)) (UniProt Q6NXK8)
[2] = biological target: mouse ASIC1a channel (mouse (endogenous in C57BL/6 striatal neurons)) (UniProt Q6NXK8); remark: listed apart in the source
[3] = biological target: human ASIC1a channel (human (endogenous in HEK293)) (UniProt P78348)
[4] = biological target: eGFP-ASIC1a (rat ASIC1a subunit fused to eGFP) (rat) (UniProt P55926)
Sequence of UniProt P55926 (P55926 whole entry, the tested form may be a part): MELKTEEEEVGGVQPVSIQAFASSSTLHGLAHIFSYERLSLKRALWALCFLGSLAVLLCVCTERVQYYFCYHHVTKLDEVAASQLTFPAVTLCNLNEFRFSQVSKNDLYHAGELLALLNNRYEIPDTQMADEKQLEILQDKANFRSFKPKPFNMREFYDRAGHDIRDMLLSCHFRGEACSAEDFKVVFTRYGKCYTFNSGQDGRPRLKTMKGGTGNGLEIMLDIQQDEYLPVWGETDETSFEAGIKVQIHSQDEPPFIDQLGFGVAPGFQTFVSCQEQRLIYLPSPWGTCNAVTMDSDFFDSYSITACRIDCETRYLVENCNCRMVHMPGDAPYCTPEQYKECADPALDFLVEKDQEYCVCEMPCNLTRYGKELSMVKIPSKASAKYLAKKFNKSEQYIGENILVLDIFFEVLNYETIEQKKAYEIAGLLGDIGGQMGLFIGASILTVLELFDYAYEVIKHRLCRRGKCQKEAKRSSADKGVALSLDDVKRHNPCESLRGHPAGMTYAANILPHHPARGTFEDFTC

[5] = biological target: eGFP-ASIC1a (rat ASIC1a subunit fused to eGFP) (rat) (UniProt P55926); remark: listed apart in the source
[6] = biological target: human ASIC1a channel (human (endogenous in HEK293)) (UniProt P78348); remark: listed apart in the source

Sequence of UniProt P78348 (P78348 whole entry, the tested form may be a part): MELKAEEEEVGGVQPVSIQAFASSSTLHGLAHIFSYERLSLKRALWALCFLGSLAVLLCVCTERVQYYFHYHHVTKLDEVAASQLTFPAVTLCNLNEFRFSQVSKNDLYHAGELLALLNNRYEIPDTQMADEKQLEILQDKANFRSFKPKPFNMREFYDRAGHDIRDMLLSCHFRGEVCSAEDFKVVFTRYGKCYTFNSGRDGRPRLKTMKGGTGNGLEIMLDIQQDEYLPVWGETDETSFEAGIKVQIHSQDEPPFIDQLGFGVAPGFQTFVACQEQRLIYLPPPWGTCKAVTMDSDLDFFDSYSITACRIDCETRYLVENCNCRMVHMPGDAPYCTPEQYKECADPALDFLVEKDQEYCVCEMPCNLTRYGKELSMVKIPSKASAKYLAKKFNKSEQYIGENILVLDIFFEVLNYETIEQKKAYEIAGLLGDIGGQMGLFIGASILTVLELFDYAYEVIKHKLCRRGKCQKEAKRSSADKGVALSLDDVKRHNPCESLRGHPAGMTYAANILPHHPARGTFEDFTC
Sequence of UniProt Q6NXK8 (Q6NXK8 whole entry): as the sequence (P55926 whole entry, the tested form may be a part) above, with S476N counted along it

MitTx (complex)
pCaMKII/Tub relative to control, Western blot of lysates of mouse striatal neurons treated with 20 nM MitTx for 2 min (fold of control) [1]: 6.37 | pERK/tERK relative to control, Western blot of lysates of mouse striatal neurons treated with 20 nM MitTx for 2 min (fold of control) [2]: 5.39 | pCaMKII/Tub relative to control, HEK cells pre-incubated with 20 nM Pctx-1 for 30 min, then MitTx for 2 min (fold of control) [3]: 1.17 | pCaMKII/Tub relative to control, Western blot of lysates of HEK cells treated with 20 nM MitTx for 2 to 10 min (8.88 at 2 min, 10.76 at 10 min) (fold of control) [3]: 10.8 | pERK/tERK relative to control, HEK cells pre-incubated with 20 nM Pctx-1 for 30 min, then MitTx for 2 to 10 min (1.18 at 2 min, 1.42 at 10 min) (fold of control) [3]: 1.42 | pERK/tERK relative to untreated eASICx1 cells, HEK cells transfected with eGFP-ASIC1a (x1), pre-incubated with Pctx-1, then MitTx (fold of eASICx1 levels) [4]: 1.1 | pERK/tERK relative to untreated eASICx1 cells, Western blot of HEK cells transfected with eGFP-ASIC1a (x1) and treated with MitTx (fold of eASICx1 levels) [5]: 3.42 | pERK/tERK relative to untreated eASICx1 cells, Western blot of HEK cells transfected with eGFP-ASIC1a (x3) and treated with MitTx (fold of eASICx1 levels) [5]: 9.96 | pERK/tERK relative to control, Western blot of lysates of HEK cells treated with 20 nM MitTx for 2 to 10 min (7.98 at 2 min, 10.90 at 10 min) (fold of control) [6]: 10.9
